Test results as given in patent publication US7019123.

Biological target: Tissue Factor VIIa (UniProt P13726)
Assay: enzyme inhibition; Tissue Factor VIIa

B1: recombinant placental bikunin (1-170) from baculovirus/Sf9 cells (protein)
chain: ADRERSIHDFCLVSKVVGRCRASMPRWWYNVTDGSCQLFVYGGCDGNSNNYLTKEECLKKCATVTENATGDLATSRNAADSSVPSAPRRQDSEDHSSDMFNYEEYCTANAVTGPCRASFPRWYFDVERNSCNNFIYGGCRGNKNSYRSEEACMLRCFRQQENPPLPLGSK
modifications: chain 1 pos 30: Asn probably N-glycosylated (no PTH residue at cycle 30), written N; six intrachain disulfides of the two Kunitz domains
- Ki: 800 nM
